From patent publication US20210147877A1

Columns and labels:
Assay in all cases: cell-based or functional assay
[1] = biological target: haploid virus AAV2/8 1:1 (AAV serotype 2; AAV serotype 8) (UniProt P03135)
[2] = biological target: haploid virus AAV2/8 3:1 (AAV serotype 2; AAV serotype 8) (UniProt P03135)
[3] = biological target: haploid virus AAV2/8 1:3 (AAV serotype 2; AAV serotype 8) (UniProt P03135)
[4] = biological target: AAV2 vector (parental AAV2 capsid) (AAV serotype 2) (UniProt P03135)
[5] = biological target: AAV8 vector (parental AAV8 capsid) (AAV serotype 8)

Substance | Neutralization antibody titer [1] [titer] | Neutralization antibody titer [2] [titer] | Neutralization antibody titer [3] [titer] | Neutralization antibody titer [4] [titer] | Neutralization antibody titer [5] [titer]
monoclonal antibody A20 | 32 | 2048 | < 2 | 512 | < 2
monoclonal antibody ADK8 | 512 | 512 | 1024 | < 2 | 1024
